Common to all, as to conditions: both partners purified
The target of one assay is T1, p63 DNA-binding domain (human).
T1 construct: also called p63 DBD; source: E. coli BL21(DE3) Rosetta, purified (IMAC, TEV digestion, reverse IMAC, SEC)
The assay is described as follows: ITC; target protein titrated into a constant concentration of DARPin, 25 injections of 10 µl; 50 mM HEPES pH 7.4, 150 mM NaCl, 0.5 mM TCEP; 10 °C; AB hetero-association model (SEDPHAT). In general terms: ITC needs no label: the signal is the heat of the interaction.

For the next assay, the target named is T2, p73 DNA-binding domain.
T2 construct: also called p73 DBD; source: E. coli BL21(DE3) Rosetta, purified (IMAC, TEV digestion, reverse IMAC, SEC)
The assay is described as follows: ITC; target protein titrated into a constant concentration of DARPin, 25 injections of 10 µl; 50 mM HEPES pH 7.4, 150 mM NaCl, 0.5 mM TCEP; 25 °C; AB hetero-association model (SEDPHAT).

The next assay addresses T3, TAp63α (human).
T3 construct: closed, dimeric; also called TAp63a; source: E. coli, bacterially expressed and purified (IMAC, SEC on Superdex 200)
Kind of assay: fluorescence polarisation; fluorescence anisotropy; 500 nM Alexa 488 labeled DARPin constant, p63 isoform 0-10 µM; 50 mM Tris pH 8, 150 mM NaCl, 0.5 mM TCEP, 0.1 % Tween-20; the sheet says 20 °C, the methods 16 °C. (In general: Polarisation of emitted light reports the rotation of a fluorescent probe.)

The next assay concerns the target T4, ΔNp63α (human, UniProt Q9H3D4-2 1-586).
T4 construct: open, tetrameric; also called DNp63a; source: E. coli, bacterially expressed and purified (IMAC, SEC on Superose 6)
T4 sequence (looked up): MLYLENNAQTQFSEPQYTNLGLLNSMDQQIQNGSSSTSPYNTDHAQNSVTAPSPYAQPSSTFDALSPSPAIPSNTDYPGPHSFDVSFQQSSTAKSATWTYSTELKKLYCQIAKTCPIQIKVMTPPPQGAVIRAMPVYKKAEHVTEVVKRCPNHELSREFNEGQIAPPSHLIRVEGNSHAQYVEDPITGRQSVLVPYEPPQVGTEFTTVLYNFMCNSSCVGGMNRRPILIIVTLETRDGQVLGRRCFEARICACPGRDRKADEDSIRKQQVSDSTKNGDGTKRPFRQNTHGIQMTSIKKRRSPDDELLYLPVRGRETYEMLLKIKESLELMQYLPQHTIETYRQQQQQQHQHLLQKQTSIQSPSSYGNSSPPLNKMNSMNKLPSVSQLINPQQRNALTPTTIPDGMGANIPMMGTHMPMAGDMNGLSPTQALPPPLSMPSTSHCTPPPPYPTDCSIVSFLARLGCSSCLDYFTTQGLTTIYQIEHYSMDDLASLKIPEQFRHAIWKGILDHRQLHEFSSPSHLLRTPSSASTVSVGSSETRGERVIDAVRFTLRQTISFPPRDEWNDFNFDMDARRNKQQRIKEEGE
The assay is described as above.

B1: DARPin G4 (designed binder)
chain: GSDLGKKLLEAARAGQDDEVRILMANGADVNAADHSGDTPLHLAAMEGHLEIVEVLLKTGADVNAHDLEGYTPLHLAAYHGHLEIVEVLLKAGADVNAWDSYGYTPLHLAAMTGHLEIVEVLLKHGADVNAQDKFGKTPFDLAIDNGNEDIAEVLQKAA
modifications: G4 assigned to 7Z7E by elimination: 7Z71 = C14, 7Z72 = A5, 7Z73 = 8F1; 7Z7E is the other p63 DBD-DARPin complex
B1: the results for the Ka with p63 DNA-binding domain and with p73 DNA-binding domain were 3.14e+07 M⁻¹ and 4.48e+06 M⁻¹, respectively.

B2: Alexa 488 labeled DARPin G4 (designed binder)
chain: GSDLGKKLLEAARAGQDDEVRILMANGADVNAADHSGDTPLHLAAMEGHLEIVEVLLKTGADVNAHDLEGYTPLHLAAYHGHLEIVEVLLKAGADVNAWDSYGYTPLHLAAMTGHLEIVEVLLKHGADVNAQDKFGKTPFDLAIDNGNEDIAEVLQKAA
modifications: Alexa Fluor 488 C5 maleimide on the C-terminal cysteine
For the molecule B2, the figures for the Kd in the assay with TAp63α and with ΔNp63α were 727 nM and 137 nM, respectively.

In general, Kd refers to the equilibrium constant for the complex coming apart. Low readings indicate a tighter complex, high ones a looser complex.

For the origin of these results see paper PMC9751120 (Cell Death and Differentiation, 2022).
